Results on four molecules are retold here after patent US20200392227A1 (LYVGEN BIOPHARMA, published 2020).

Like-named read-outs stand apart in the source and are kept apart here.

The target of experiment [1] is T1, human FcγRIIC expressed on CHO cells (human, UniProt P31995 43-323).
T1 construct: whole, on cells
T1 sequence (looked up): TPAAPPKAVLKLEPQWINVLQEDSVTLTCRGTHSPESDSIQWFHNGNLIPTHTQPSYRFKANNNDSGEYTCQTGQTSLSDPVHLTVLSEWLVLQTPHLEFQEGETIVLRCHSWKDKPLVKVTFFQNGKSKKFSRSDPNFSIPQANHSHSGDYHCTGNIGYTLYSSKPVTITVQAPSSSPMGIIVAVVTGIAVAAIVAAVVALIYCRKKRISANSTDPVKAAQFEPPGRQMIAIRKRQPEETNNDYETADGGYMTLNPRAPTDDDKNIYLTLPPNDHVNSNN
The experiment can be described thus: FACS, CHO cells expressing FcγRIIC. How it is done: FIGS. 1A-1W are charts showing binding activity of various IgG variants as indicated to different types of Fcγ receptors expressed on CHO-K1 cells at the various concentrations as indicated. The concentrations of each IgG variant, from left to right, are 0 μg/ml, 0.3 μg/ml, 1 μg/ml, 3 μg/ml, and 10 μg/ml in FIGS. 1A-1C, 1E-J, 1L-1M, 1P-1R, and 1T-1V. For FIGS. 1D, 1K, 10, 1S, and 1w the bars, from left to right, correspond to the following concentrations of IgG variant: 0.3 μg/ml, 1 μg/ml, 3 μg/ml, and 10 μg/ml.
For FACS analysis of the IgG mutants' binding to different FcγRs, FcγR overexpressing CHO cells were harvested using trypsin-EDTA and were suspended in cold staining buffer (3% BSA in PBS). Test IgG mutants, which were diluted in staining buffer, were added into the cells. The mixture was incubated 4° C. for 2 hours, and then washed twice with cold staining buffer and re-suspended in PE-labeled anti-human IgG followed by incubation at 4° C. for 2 hours. The mixture was washed twice with staining buffer and re-suspended in 2% PFA in PBS for FACS.
A general note: A flow cytometer gives signals particle by particle.

Experiment [2] concerns the target T2, human FcRIIIA-V158 protein (MednaBio, E1035) (human, UniProt P08637 17-208).
T2 construct: Bought; also called FcγRIIIA(V); FcgRIIIA(V)
The experiment can be described thus: BLI. The method in brief: (§1)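 Binding was measured by biolayer interferometry on an Octet Red96 System. Commercial human Fc receptor proteins were loaded at 20 μg/mL onto anti-penta-HIS biosensors, which were then dipped into an 8-point 1:3 dilution series of test IgG starting at 300 nM in PBS with 0.1% BSA and 0.02% Tween-20, at pH 7.2 for Fcγ receptors and pH 6 for FcRn. Kd, kon and koff were obtained by global fitting, with data fitted to a 1:1 binding model.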
On the technique in general: In BLI a coated tip is dipped into the sample, and binding shifts an interference pattern.

The target in experiment [3] is T3, human FcRIIA protein (MednaBio, E1033) (human, UniProt P12318 34-218, limits assumed).
T3 construct: Bought; also called FcγRIIA
T3 sequence (looked up): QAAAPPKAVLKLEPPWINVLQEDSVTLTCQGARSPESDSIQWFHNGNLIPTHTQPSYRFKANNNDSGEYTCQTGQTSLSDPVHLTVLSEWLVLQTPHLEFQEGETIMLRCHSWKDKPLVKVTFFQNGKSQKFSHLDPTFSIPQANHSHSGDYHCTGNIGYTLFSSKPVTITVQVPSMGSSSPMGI
The experiment can be described thus: BLI. Put shortly: as §1

Experiment [4] addresses T4, human FcRIIB/C protein (MednaBio, E1034) (human, UniProt P31994 43-217, limits assumed).
T4 construct: Bought as FcRIIB/C; also called FcγRIIB; CD32B
T4 sequence (looked up): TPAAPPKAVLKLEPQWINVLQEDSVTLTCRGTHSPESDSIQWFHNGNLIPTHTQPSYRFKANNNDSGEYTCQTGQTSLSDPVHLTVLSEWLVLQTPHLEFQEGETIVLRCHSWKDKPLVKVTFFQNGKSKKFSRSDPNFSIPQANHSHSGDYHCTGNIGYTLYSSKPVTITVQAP
The experiment can be described thus: BLI. The method in brief:
as §1

In experiment [5] the target is T5, human FcRn protein (MednaBio, E1032) (human, UniProt P55899 24-297; P61769 21-119).
T5 construct: Bought; assays at pH 6
The experiment can be described thus: BLI. The method in brief:
as §1

Experiment [6] has as its target T6, human FcRIIIB protein (MednaBio, E1037) (human, UniProt O75015 17-200).
T6 construct: Bought; also called FcγRIIIB; FcgRIIIB
The experiment can be described thus: BLI. The method in brief: as §1

Experiment [7] addresses T7, human FcRIIIA-F158 protein (MednaBio, E1036) (human, UniProt P08637 17-208).
T7 construct: Bought; also called FcγRIIIA(F)
The experiment can be described thus: BLI. The method in brief:
as §1

Experiment [8] deals with T8, human FcRI protein (MednaBio, E1031) (human, UniProt P12314 16-288, limits assumed).
T8 construct: Bought; loaded on anti-penta-HIS biosensors; also called FcγRI
The experiment can be described thus: BLI. Put shortly: as §1

In experiment [9] the target is T2, human FcRIIIA-V158 protein (MednaBio, …). The experiment can be described thus: BLI. The method in brief:
as §1
This is another data set of the same source.

The target in experiment [10] is T3, human FcRIIA protein (MednaBio, E1033). The experiment can be described thus: BLI. Put shortly:
as §1
This is another data set of the same source.

For experiment [11], the target named is T4, human FcRIIB/C protein (MednaBio, E1034). The experiment can be described thus: BLI. Put shortly: as §1
This is another data set of the same source.

Experiment [12] has as its target T5, human FcRn protein (MednaBio, E1032). The experiment can be described thus: BLI. The method in brief: as §1
The source holds these as a separate data set.

Experiment [13] addresses T6, human FcRIIIB protein (MednaBio, E1037). The experiment can be described thus: BLI. The method in brief:
as §1
This is another data set of the same source.

The target in experiment [14] is T7, human FcRIIIA-F158 protein (MednaBio, …). The experiment can be described thus: BLI. The method in brief:
as §1
The source holds these as a separate data set.

For experiment [15], the target named is T8, human FcRI protein (MednaBio, E1031). The experiment can be described thus: BLI. The method in brief:
as §1
The source holds these as a separate data set.

T8 sequence (P12314 16-288 limits assumed): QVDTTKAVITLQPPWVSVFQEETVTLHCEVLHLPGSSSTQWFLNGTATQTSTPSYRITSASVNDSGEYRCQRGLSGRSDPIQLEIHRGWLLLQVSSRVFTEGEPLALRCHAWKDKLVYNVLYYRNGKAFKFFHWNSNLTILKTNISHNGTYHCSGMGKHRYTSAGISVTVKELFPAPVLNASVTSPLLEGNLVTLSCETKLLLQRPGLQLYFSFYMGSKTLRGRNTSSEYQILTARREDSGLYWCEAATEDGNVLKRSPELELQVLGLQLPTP
T6 sequence (O75015 17-200 limits assumed): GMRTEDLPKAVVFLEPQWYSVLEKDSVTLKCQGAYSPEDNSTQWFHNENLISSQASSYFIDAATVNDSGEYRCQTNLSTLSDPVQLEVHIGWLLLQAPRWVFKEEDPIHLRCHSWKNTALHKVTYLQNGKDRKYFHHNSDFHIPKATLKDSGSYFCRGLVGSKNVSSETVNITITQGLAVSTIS
T7 sequence (P08637 17-208 limits assumed): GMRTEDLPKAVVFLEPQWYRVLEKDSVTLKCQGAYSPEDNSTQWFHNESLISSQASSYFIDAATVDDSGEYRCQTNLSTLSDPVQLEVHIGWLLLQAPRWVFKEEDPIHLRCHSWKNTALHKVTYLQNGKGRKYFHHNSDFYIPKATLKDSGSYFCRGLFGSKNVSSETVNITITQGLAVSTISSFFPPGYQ
T5 sequence (P55899 24-297 limits assumed, form in doubt, chain 1 of 2): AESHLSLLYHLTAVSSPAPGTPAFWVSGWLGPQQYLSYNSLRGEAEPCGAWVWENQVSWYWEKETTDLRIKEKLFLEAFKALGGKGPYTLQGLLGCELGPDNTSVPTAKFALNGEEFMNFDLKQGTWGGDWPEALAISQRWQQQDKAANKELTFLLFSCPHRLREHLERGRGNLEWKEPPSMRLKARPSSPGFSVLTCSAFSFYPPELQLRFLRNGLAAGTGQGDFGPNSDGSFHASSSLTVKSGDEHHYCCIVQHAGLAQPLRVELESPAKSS
T5 sequence (P61769 21-119 limits assumed, form in doubt, chain 2 of 2): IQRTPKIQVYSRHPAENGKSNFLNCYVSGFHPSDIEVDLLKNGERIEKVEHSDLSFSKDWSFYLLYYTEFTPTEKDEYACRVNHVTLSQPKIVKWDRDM
T2 sequence (P08637 17-208 F176V): as the sequence (P08637 17-208 limits assumed) above, with F160V counted along it

B1: anti-CD137 IgG4 with Fc variant G4m7 (antibody)
heavy: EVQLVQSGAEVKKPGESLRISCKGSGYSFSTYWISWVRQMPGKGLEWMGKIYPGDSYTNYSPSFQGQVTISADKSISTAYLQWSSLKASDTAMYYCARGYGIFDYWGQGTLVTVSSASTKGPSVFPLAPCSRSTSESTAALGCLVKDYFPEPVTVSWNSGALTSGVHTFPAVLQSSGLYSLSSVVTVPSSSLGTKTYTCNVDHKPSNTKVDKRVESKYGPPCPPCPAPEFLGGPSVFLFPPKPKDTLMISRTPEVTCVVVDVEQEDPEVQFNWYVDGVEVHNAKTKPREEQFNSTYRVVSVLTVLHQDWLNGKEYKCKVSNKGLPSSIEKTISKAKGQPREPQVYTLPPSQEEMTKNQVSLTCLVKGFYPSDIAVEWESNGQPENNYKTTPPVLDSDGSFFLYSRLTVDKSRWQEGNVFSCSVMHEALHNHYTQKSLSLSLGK
light: SYELTQPPSVSVSPGQTASITCSGDNIGDQYAHWYQQKPGQSPVLVIYQDKNRPSGIPERFSGSNSGNTATLTISGTQAMDEADYYCATYTGFGSLAVFGGGTKLTVLGQPKAAPSVTLFPPSSEELQANKATLVCLISDFYPGAVTVAWKADSSPVKAGVETTTPSKQSNNKYAASSYLSLTPEQWKSHRSYSCQVTHEGSTVEKTVAPTECS
notes: copies: 2 + 2
For B1, the binding result in [1] is listed as “binds”; in experiment [2], “no binding (tested: 300 nM)”; in experiment [6], “no binding (tested: 300 nM)”; in experiment [7], “no binding (tested: 300 nM)”. For the same molecule, the Kd (as a rule, the equilibrium constant for the complex coming apart) in experiment [3] is 0.21 µM; in experiment [4], 0.045 µM; in experiment [5], 0.023 µM; in experiment [8] it was 0.0021 µM. For the same molecule, the koff – broadly, the first-order rate constant of dissociation – in [3] is 0.034 s⁻¹; in [4], 0.02 s⁻¹; in experiment [5], 0.012 s⁻¹; in experiment [8], 0.0011 s⁻¹. The kon (usually a measure of how fast the partners come together) stood at 160000 M⁻¹ s⁻¹ in experiment [3], 440000 M⁻¹ s⁻¹ in [4], 520000 M⁻¹ s⁻¹ in [5] and 540000 M⁻¹ s⁻¹ in experiment [8].

B2: anti-CD137 IgG4 with Fc variant G4mPE (antibody)
heavy: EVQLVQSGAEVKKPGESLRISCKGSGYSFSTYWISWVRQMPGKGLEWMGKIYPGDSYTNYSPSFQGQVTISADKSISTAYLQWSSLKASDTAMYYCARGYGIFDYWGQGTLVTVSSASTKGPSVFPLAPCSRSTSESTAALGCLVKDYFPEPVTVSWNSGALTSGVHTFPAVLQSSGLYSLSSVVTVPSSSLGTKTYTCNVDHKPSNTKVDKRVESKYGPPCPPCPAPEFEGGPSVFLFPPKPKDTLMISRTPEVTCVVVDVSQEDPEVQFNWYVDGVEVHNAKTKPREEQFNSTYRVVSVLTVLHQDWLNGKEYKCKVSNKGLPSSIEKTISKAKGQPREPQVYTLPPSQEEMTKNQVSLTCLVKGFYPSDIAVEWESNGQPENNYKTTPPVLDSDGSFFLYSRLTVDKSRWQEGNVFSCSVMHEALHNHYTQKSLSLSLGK
light: SYELTQPPSVSVSPGQTASITCSGDNIGDQYAHWYQQKPGQSPVLVIYQDKNRPSGIPERFSGSNSGNTATLTISGTQAMDEADYYCATYTGFGSLAVFGGGTKLTVLGQPKAAPSVTLFPPSSEELQANKATLVCLISDFYPGAVTVAWKADSSPVKAGVETTTPSKQSNNKYAASSYLSLTPEQWKSHRSYSCQVTHEGSTVEKTVAPTECS
notes: also called G4PE; copies: 2 + 2
B2: the Kd was determined as 0.202 µM in experiment [2]; 0.0545 µM in [3]; 0.0307 µM in experiment [4]; 0.0219 µM in experiment [5]; 0.132 µM in experiment [6]; 0.145 µM in [7]. Moreover, the dissociation constant (Kd) in [8] came to 0.605 µM. The koff in experiment [2] came to 0.0596 s⁻¹; in experiment [3], 0.0256 s⁻¹; in [4], 0.0123 s⁻¹; in experiment [5], 0.0152 s⁻¹; in experiment [6], 0.0579 s⁻¹; in experiment [7], 0.0678 s⁻¹. Besides, in [8], the koff was 0.0617 s⁻¹. Besides, the kon in [2] worked out at 296000 M⁻¹ s⁻¹; in experiment [3], 469000 M⁻¹ s⁻¹; in [4], 401000 M⁻¹ s⁻¹; in [5], 698000 M⁻¹ s⁻¹; in experiment [6], 437000 M⁻¹ s⁻¹; in experiment [7], 468000 M⁻¹ s⁻¹. Moreover, the kon in experiment [8] was found to be 102000 M⁻¹ s⁻¹.

B3: anti-CD137 IgG1 with Fc variant G1m17 (antibody)
heavy: EVQLVQSGAEVKKPGESLRISCKGSGYSFSTYWISWVRQMPGKGLEWMGKIYPGDSYTNYSPSFQGQVTISADKSISTAYLQWSSLKASDTAMYYCARGYGIFDYWGQGTLVTVSSASTKGPSVFPLAPSSKSTSGGTAALGCLVKDYFPEPVTVSWNSGALTSGVHTFPAVLQSSGLYSLSSVVTVPSSSLGTQTYICNVNHKPSNTKVDKKVEPKSCDKTHTCPPCPAPELLSVFLFPPKPKDTLMISRTPEVTCVVVDVEHEDPEVKFNWYVDGVEVHNAKTKPREEQYNSTYRVVSVLTVLHQDWLNGKEYKCKVSNKALPAPIEKTISKAKGQPREPQVYTLPPSREEMTKNQVSLTCLVKGFYPSDIAVEWESNGQPENNYKTTPPVLDSDGSFFLYSKLTVDKSRWQQGNVFSCSVMHEALHNHYTQKSLSLSPGK
light: SYELTQPPSVSVSPGQTASITCSGDNIGDQYAHWYQQKPGQSPVLVIYQDKNRPSGIPERFSGSNSGNTATLTISGTQAMDEADYYCATYTGFGSLAVFGGGTKLTVLGQPKAAPSVTLFPPSSEELQANKATLVCLISDFYPGAVTVAWKADSSPVKAGVETTTPSKQSNNKYAASSYLSLTPEQWKSHRSYSCQVTHEGSTVEKTVAPTECS
notes: copies: 2 + 2
Turning to B3, the binding result in [9], in experiment [13] and in experiment [14] was “no binding (tested: 300 nM)” each time. The Kd in [10] came to 0.25 µM; in [11] it was 0.18 µM; in [12], 0.0107 µM; in experiment [15], 0.088 µM. Also, the koff turned out to be 0.059 s⁻¹ in [10], 0.043 s⁻¹ in experiment [11], 0.00764 s⁻¹ in [12] and 0.041 s⁻¹ in experiment [15]. The kon came to 240000 M⁻¹ s⁻¹ in experiment [10], 240000 M⁻¹ s⁻¹ in [11], 715000 M⁻¹ s⁻¹ in [12] and 460000 M⁻¹ s⁻¹ in experiment [15].

B4: anti-CD137 IgG1 with Fc variant G1m15 (antibody)
heavy: EVQLVQSGAEVKKPGESLRISCKGSGYSFSTYWISWVRQMPGKGLEWMGKIYPGDSYTNYSPSFQGQVTISADKSISTAYLQWSSLKASDTAMYYCARGYGIFDYWGQGTLVTVSSASTKGPSVFPLAPSSKSTSGGTAALGCLVKDYFPEPVTVSWNSGALTSGVHTFPAVLQSSGLYSLSSVVTVPSSSLGTQTYICNVNHKPSNTKVDKKVEPKSCDKTHTCPPCPAPELLSVFLFPPKPKDTLMISRTPEVTCVVVDVSHEDPEEKFNWYVDGVEVHNAKTKPREEQYNSTYRVVSVLTVLHQDWLNGKEYKCKVSNKALPAPIEKTISKAKGQPREPQVYTLPPSREEMTKNQVSLTCLVKGFYPSDIAVEWESNGQPENNYKTTPPVLDSDGSFFLYSKLTVDKSRWQQGNVFSCSVMHEALHNHYTQKSLSLSPGK
light: SYELTQPPSVSVSPGQTASITCSGDNIGDQYAHWYQQKPGQSPVLVIYQDKNRPSGIPERFSGSNSGNTATLTISGTQAMDEADYYCATYTGFGSLAVFGGGTKLTVLGQPKAAPSVTLFPPSSEELQANKATLVCLISDFYPGAVTVAWKADSSPVKAGVETTTPSKQSNNKYAASSYLSLTPEQWKSHRSYSCQVTHEGSTVEKTVAPTECS
notes: copies: 2 + 2
B4: the binding result in experiment [9], in experiment [13] and in experiment [14] was “no binding (tested: 300 nM)” in each case. Also, the dissociation constant (Kd) in [10] was determined as 0.48 µM; in experiment [11] it was 0.7 µM; in experiment [12], 0.021 µM; in [15] it was 0.12 µM. In addition, the koff in experiment [10] stood at 0.11 s⁻¹; in experiment [11], 0.38 s⁻¹; in [12], 0.013 s⁻¹; in experiment [15], 0.06 s⁻¹. In addition, the kon was determined as 230000 M⁻¹ s⁻¹ in [10], 540000 M⁻¹ s⁻¹ in experiment [11], 600000 M⁻¹ s⁻¹ in [12] and 500000 M⁻¹ s⁻¹ in [15].
